{"source": "patent US20190262431", "molecular_target": "active (phosphorylated) human Syk (Merck Millipore) (UniProt P43405)"}
{"substance": "catalytically inactive human C373A Cbl-b^29-483 mutant (recombinant, GST fusion protein)", "values": [{"measurement": "in vitro poly-ubiquitination of active Syk (Western blot)", "value": "did not show Syk poly-ubiquitination activity"}]}
